Measurements published in PMC2230540 (The Journal of General Physiology, 1999).

Target: the molecule itself
Test: cross-linking

B1: EriC, Escherichia coli ClC-type Cl- channel homologue, product of the yadQ gene (natural protein, UniProt P37019 1-473, looked up)
chain: MKTDTPSLETPQAARLRRRQLIRQLLERDKTPLAILFMAAVVGTLVGLAAVAFDKGVAWLQNQRMGALVHTADNYPLLLTVAFLCSAVLAMFGYFLVRKYAPEAGGSGIPEIEGALEDQRPVRWWRVLPVKFFGGLGTLGGGMVLGREGPTVQIGGNIGRMVLDIFRLKGDEARHTLLATGAAAGLAAAFNAPLAGILFIIEEMRPQFRYTLISIKAVFIGVIMSTIMYRIFNHEVALIDVGKLSDAPLNTLWLYLILGIIFGIFGPIFNKWVLGMQDLLHRVHGGNITKWVLMGGAIGGLCGLLGFVAPATSGGGFNLIPIATAGNFSMGMLVFIFVARVITTLLCFSSGAPGGIFAPMLALGTVLGTAFGMVAVELFPQYHLEAGTFAIAGMGALLAASIRAPLTGIILVLEMTDNYQLILPMIITGLGATLLAQFTGGKPLYSAILARTLAKQEAEQLARSKAASASENT
stoichiometry N: 2
